This note sets out measurements from patent US20170260282A1 (Janssen / Centocor, published 2017).

Usually Kd stands for a measure of binding affinity in units of concentration. A word on the koff: it is the rate constant with which the complex falls apart. Broadly, the kon is a measure of how fast the partners come together.

The target in assay [1] is T1, Human GITR (cell surface) (human, UniProt Q9Y5U5 26-241).
T1 construct: also called hGITR; huGITR
T1 sequence: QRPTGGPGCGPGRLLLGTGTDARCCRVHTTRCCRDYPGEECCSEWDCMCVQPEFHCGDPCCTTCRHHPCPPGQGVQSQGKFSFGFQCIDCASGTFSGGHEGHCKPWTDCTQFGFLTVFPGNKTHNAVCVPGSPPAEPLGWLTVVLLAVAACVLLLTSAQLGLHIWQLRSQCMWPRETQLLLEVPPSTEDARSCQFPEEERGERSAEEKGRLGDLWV
Nature of the assay: flow cytometry, transiently transfected HEK293F cells, 0.1 mg/mL antibody. A general note: Flow cytometry measures light scatter and fluorescence of single cells or particles in a stream.

The target in assay [2] is T2, Cyno GITR (cell surface) (cynomolgus monkey).
T2 construct: Presented on transfected or transduced HEK293 cells; also called cynomolgus monkey GITR
T2 chain: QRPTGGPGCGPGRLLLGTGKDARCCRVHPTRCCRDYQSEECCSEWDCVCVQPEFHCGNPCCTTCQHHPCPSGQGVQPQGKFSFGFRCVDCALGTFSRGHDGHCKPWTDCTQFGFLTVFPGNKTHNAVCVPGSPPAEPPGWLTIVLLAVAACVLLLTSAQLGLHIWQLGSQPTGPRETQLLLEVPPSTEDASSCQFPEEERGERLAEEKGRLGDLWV
The assay is described as above.

Assay [3] addresses T1, Human GITR (cell surface). Description: cell-based or functional assay.
The target of assay [4] is T2, Cyno GITR (cell surface). Nature of the assay: cell-based or functional assay.
The target in assay [5] is T3, recombinant human GITR ECD (human, UniProt Q9Y5U5 26-161).
T3 construct: also called human GITR extracellular domain
T3 sequence: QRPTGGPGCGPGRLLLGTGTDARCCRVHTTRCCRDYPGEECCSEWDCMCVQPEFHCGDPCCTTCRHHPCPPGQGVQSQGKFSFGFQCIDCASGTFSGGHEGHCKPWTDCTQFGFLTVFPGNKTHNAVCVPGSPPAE
Description: SPR (ProteOn XPR36), mAb captured by anti-human Fc, GITR ECD as analyte, 25 °C. The method, then: (§1) The affinities of the GITR antibodies to recombinant human GITR ECD were measured by Surface Plasmon Resonance (SPR) using a ProteOn XPR36 protein interaction array system (BioRad).
(§2) The rates of GITR ECD association and dissociation were measured for each variant. The biosensor surface was prepared by covalently coupling Goat anti-Human IgG (Fc) to the surface of a GLC chip (BioRad) using the manufacturer instructions for amine-coupling chemistry. Approximately 8800 RU (response units) of Goat anti-Human IgG (Fc) antibody (Jackson ImmunoResearch laboratories Prod #109-005-098) were immobilized. […] Since the mixture was 1:1 about 50% of these RU immobilized are expected to be goat anti-human Fc. The binding kinetics experiments were performed at 25° C. in running buffer (PBS pH 7.4, 0.005% P20, 3 mM EDTA). […] (1:3) serial dilutions of human GITR ECD or cyno GITR ECD starting at 100 nM were prepared in running buffer. […] The reference spots (Goat anti-Human IgG (Fc)-modified surface) containing no candidate captured were used as a reference surface. Capture of mAb was followed by 3 min injection (association phase) of antigen at 40 μL/min, followed by 10 min of buffer flow (dissociation phase). The chip surface was regenerated by injection of 0.85% phosphoric acid at 100 μL/min. Data were processed on the instrument software. Double reference subtraction of the data was performed by subtracting the curves generated by buffer injection from the reference-subtracted curves for analyte injections. Kinetic analysis of the data was performed using 1:1 Langmuir binding model with group fit. The result for each mAb was reported in the format of kon or on-rate, koff or off-rate, and KD (Equilibrium dissociation constant) (Table 7).

The target of assay [6] is T4, cyno GITR ECD (cynomolgus monkey).
T4 construct: Only the extracellular domain stood in the SPR assay
T4 chain: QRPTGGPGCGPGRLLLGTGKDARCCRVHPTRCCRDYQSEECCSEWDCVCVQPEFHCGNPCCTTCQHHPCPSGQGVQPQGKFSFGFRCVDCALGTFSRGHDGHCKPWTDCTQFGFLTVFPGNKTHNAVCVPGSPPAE
The description is as above. The method, then:
as §1, §2

B1: TRGB144 (antibody, human IgG1, kappa, V domains shown)
VH: QVQLVQSGAEVKKPGSSVKVSCKASGGTFSSYAISWVRQAPGQGLEWMGGIIPIFGTANYAQKFQGRVTITADESTSTAYMELSSLRSEDTAVYYCARHGFQRGYLDYWGQGTLVTVSS
VL: EIVLTQSPATLSLSPGERATLSCRASQSVSSYLAWYQQKPGQAPRLLIYDASNRATGIPARFSGSGSGTDFTLTISSLEPEDFAVYYCQQRSNWPLTFGQGTKVEIKR
notes: human IgG1/kappa
Turning to B1, the binding result in assay [1] and in assay [2] was “binds” in each case.

B2: TRGB120 (antibody, human IgG1, kappa, V domains shown)
VH: QVQLVQSGAEVKKPGSSVKVSCKASGGTFSSYAISWVRQAPGQGLEWMGGIIPIFGTANYAQKFQGRVTITADESTSTAYMELSSLRSEDTAVYYCARPRRNTNELDYWGQGTLVTVSS
VL: not shown
notes: human IgG1/kappa
In the case of B2, the binding result in assay [1] and in assay [2] was “binds” in each case.

B3: TRGB23 (antibody, human IgG1, kappa, V domains shown)
VH: QVQLVQSGAEVKKPGSSVKVSCKASGGTFSSYAISWVRQAPGQGLEWMGGIIPIFGTANYAQKFQGRVTITADESTSTAYMELSSLRSEDTAVYYCARHGNWLHFNLDYWGQGTLVTVSS
VL: EIVLTQSPATLSLSPGERATLSCRASQSVSSYLAWYQQKPGQAPRLLIYDASNRATGIPARFSGSGSGTDFTLTISSLEPEDFAVYYCQQRSNWPLTFGQGTKVEIKR
For B3, the “ADCC EC50, HEK293-hGITR target cells, NK-92 FcγRIIIa 176V/V effector cells” value (“ADCC EC50, HEK293-hGITR target cells” below) in assay [3] came to 4.4 ng/mL. In addition, the “ADCC EC50, HEK293-cyno GITR target cells, NK-92 FcγRIIIa 176V/V effector cells” value in assay [4] was 10.2 ng/mL.

B4: TRGB34 (antibody, human IgG1, kappa, V domains shown)
VH: EVQLVQSGAEVKKPGESLKISCKGSGYSFTSYWIGWVRQMPGKGLEWMGIIYPGDSDTRYSPSFQGQVTISADKSISTAYLQWSSLKASDTAMYYCARDYGWHDFDYWGQGTLVTVSS
VL: EIVLTQSPATLSLSPGERATLSCRASQSVSSYLAWYQQKPGQAPRLLIYDASNRATGIPARFSGSGSGTDFTLTISSLEPEDFAVYYCQQRSNWPLTFGQGTKVEIKR
notes: human IgG1/kappa
Take B4: the “ADCC EC50, HEK293-hGITR target cells” value in assay [3] amounted to 5.8 ng/mL. In addition, the binding result in assay [2] is “binds”.

B5: TRGB14 (antibody, human IgG1, kappa, V domains shown)
VH: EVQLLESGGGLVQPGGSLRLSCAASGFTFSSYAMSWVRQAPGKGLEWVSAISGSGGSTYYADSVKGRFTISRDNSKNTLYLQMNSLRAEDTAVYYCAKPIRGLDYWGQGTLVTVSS
VL: EIVLTQSPATLSLSPGERATLSCRASQSVNNFLAWYQQKPGQAPRLLIYDASNRATGIPARFSGSGSGTDFTLTISSLEPEDFAVYYCQQGFNAPLTFGQGTKVEIKR
notes: human IgG1/kappa
With B5, the binding result in assay [1] and in assay [2] was “binds” in each case.

B6: TRGB20 (antibody, human IgG1, kappa, V domains shown)
VH: EVQLLESGGGLVQPGGSLRLSCAASGFTFSGYWMNWVRQAPGKGLEWVSGISSDGGSKYYADSVKGRFTISRDNSKNTLYLQMNSLRAEDTAVYYCAKEVVYDHYAALDYWGQGTLVTVSS
VL: EIVLTQSPATLSLSPGERATLSCRASQSVNSFLAWYQQKPGQAPRLLIYYASNRATGIPARFSGSGSGTDFTLTISSLEPEDFAVYYCQQYIRWPLTFGQGTKVEIKR
notes: human IgG1/kappa
On to B6, for which the binding result in assay [1] and in assay [2] was “binds” each time.

B7: TRGB31 (antibody, human IgG1, kappa, V domains shown)
VH: EVQLVQSGAEVKKPGESLKISCKGSGYSFTSYWIGWVRQMPGKGLEWMGIIDPSDSDTRYSPSFQGQVTISADKSISTAYLQWSSLKASDTAMYYCARVFPYYGLVLDYWGQGTLVTVSS
VL: EIVLTQSPATLSLSPGERATLSCRASQSVSSYLAWYQQKPGQAPRLLIYDASNRATGIPARFSGSGSGTDFTLTISSLEPEDFAVYYCQQRSNWPLTFGQGTKVEIKR
notes: human IgG1/kappa
B7: the “ADCC EC50, HEK293-hGITR target cells” value in assay [3] turned out to be 7.6 ng/mL. Further, in assay [2], the binding result is listed as “binds”.

B8: TRGB5 (antibody, human IgG1, kappa, V domains shown)
VH: EVQLLESGGGLVQPGGSLRLSCAASGFTFSGYWMSWVRQAPGKGLEWVSAISGSGGSTYYADSVKGRFTISRDNSKNTLYLQMNSLRAEDTAVYYCAKDFYWDAFDYWGQGTLVTVSS
VL: EIVLTQSPATLSLSPGERATLSCRASQSVSSYLAWYQQKPGQAPRLLIYDASNRATGIPARFSGSGSGTDFTLTISSLEPEDFAVYYCQQRSNWPLTFGQGTKVEIKR
notes: human IgG1/kappa
For the molecule B8, the binding result in assay [1] and in assay [2] was “binds” throughout.

B9: TRGB134 (antibody, human IgG1, kappa, V domains shown)
VH: QVQLVQSGAEVKKPGSSVKVSCKASGGTFSSYAISWVRQAPGQGLEWMGGIIPIFGTANYAQKFQGRVTITADESTSTAYMELSSLRSEDTAVYYCARHRWGSGNLDYWGQGTLVTVSS
VL: EIVLTQSPATLSLSPGERATLSCRASQSVSSYLAWYQQKPGQAPRLLIYDASNRATGIPARFSGSGSGTDFTLTISSLEPEDFAVYYCQQRSNWPLTFGQGTKVEIKR
notes: human IgG1/kappa
B9: the binding result in assay [1] and in assay [2] was “binds” in each case.

B10: TRGB35 (antibody, human IgG1, kappa, V domains shown)
VH: EVQLVQSGAEVKKPGESLKISCKGSGYSFTSYWISWVRQMPGKGLEWMGIIDPGDSDTRYSPSFQGQVTISADKSISTAYLQWSSLKASDTAMYYCARHRWSTSLLLDYWGQGTLVTVSS
VL: EIVLTQSPATLSLSPGERATLSCRASQSVSSYLAWYQQKPGQAPRLLIYDASNRATGIPARFSGSGSGTDFTLTISSLEPEDFAVYYCQQRSNWPLTFGQGTKVEIKR
notes: human IgG1/kappa
Take B10: the binding result in assay [1] and in assay [2] was “binds” throughout.

B11: TRGB159 (antibody, human IgG1, kappa, V domains shown)
VH: QVQLVQSGAEVKKPGSSVKVSCKASGGTFSSYAISWVRQAPGQGLEWMGGIIPIFGTANYAQKFQGRVTITADESTSTAYMELSSLRSEDTAVYYCARHGRNSGRLDYWGQGTLVTVSS
VL: EIVLTQSPATLSLSPGERATLSCRASQSVSSYLAWYQQKPGQAPRLLIYDASNRATGIPARFSGSGSGTDFTLTISSLEPEDFAVYYCQQRSNWPLTFGQGTKVEIKR
notes: human IgG1/kappa
With B11, in assay [3], the “ADCC EC50, HEK293-hGITR target cells” value was determined as 2.9 ng/mL and the “ADCC EC50, HT1080-hGITR target cells, NK-92 FcγRIIIa 176V/V effector cells” value turned out to be 6.7 ng/mL. The “ADCC EC50, HEK293-cyno GITR target cells, NK-92 FcγRIIIa 176V/V effector cells” value in assay [4] is 25.8 ng/mL. Further, in assay [5], the Kd came to 3.04 nM, the off-rate constant (koff) came out at 0.00162 s⁻¹ and the kon turned out to be 532000 M⁻¹ s⁻¹. For the same molecule, in assay [6], the Kd worked out at 10.6 nM, the off-rate (koff) came out at 0.00197 s⁻¹ and the kon was determined as 185000 M⁻¹ s⁻¹.

B12: TRGB162 (antibody, human IgG1, kappa, V domains shown)
VH: QVQLVQSGAEVKKPGSSVKVSCKASGGTFSSYAISWVRQAPGQGLEWMGGIIPIFGNANYAQKFQGRVTITADESTSTAYMELSSLRSEDTAVYYCARHVYKRGVLNYWGQGTLVTVSS
VL: EIVLTQSPATLSLSPGERATLSCRASQSVSSYLAWYQQKPGQAPRLLIYDASNRATGIPARFSGSGSGTDFTLTISSLEPEDFAVYYCQQRSNWPLTFGQGTKVEIKR
notes: human IgG1/kappa
With B12, the binding result in assay [1] and in assay [2] was “binds” each time.
